Measured values published in patent publication US20240116985A1 (published 2024).
Starred links: 1 amine or outer side, 2 acyl side, 3 side chain; linkers in the order of their positions; H or OH if unused. Positions of bridges follow the written chain, without caps; N, C: chain ends. Non-standard residues stand in square brackets, D forms with d. Primed or numbered codes have the meaning given here. B5(23) = 2-amino-2-(pent-4-en-1-yl)hept-6-enoic acid (2,2-bis(4-pentenyl)glycine), stitching residue, C=CCCCC(CCCC=C)(N[*:1])C(=O)[*:2]; Bta = N[C@@H](Cc1csc2ccccc12)C(=O)O; αAllylPro = C=CC[C@@]1(C(=O)O)CCCN1; S8 = C=CCCCCCC[C@](C)(N)C(=O)O

T1: full-length beta-Catenin (Uniprot ID P35222) (Homo sapiens (Human), UniProt P35222 2-781)
T1 construct: The assay protocols say only 'full-length'; No tag is stated, although the AlphaScreen kit is a Histidine (Nickel Chelate) kit; also called B-Catenin; bCat
T1 sequence: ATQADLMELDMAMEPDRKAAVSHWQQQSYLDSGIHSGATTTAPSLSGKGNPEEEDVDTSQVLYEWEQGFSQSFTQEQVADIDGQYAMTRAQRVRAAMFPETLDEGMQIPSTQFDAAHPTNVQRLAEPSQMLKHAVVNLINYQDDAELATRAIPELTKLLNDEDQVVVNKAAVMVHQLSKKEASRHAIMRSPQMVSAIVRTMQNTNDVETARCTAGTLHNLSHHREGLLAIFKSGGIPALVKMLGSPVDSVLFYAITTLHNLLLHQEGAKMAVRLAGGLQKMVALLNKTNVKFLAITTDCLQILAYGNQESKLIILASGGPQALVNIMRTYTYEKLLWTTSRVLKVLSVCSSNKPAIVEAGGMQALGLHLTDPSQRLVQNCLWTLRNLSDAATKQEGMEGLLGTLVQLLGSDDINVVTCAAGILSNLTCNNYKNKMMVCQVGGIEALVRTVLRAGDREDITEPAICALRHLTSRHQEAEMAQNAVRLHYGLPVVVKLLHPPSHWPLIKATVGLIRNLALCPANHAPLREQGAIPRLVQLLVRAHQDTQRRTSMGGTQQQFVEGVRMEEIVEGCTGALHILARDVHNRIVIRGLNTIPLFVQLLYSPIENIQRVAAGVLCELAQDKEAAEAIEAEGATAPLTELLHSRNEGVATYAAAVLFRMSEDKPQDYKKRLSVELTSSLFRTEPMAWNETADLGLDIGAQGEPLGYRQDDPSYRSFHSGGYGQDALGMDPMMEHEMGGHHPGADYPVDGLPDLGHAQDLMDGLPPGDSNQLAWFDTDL

T2: B-cat-Halo (UniProt P35222 1-781)
T2 sequence (looked up): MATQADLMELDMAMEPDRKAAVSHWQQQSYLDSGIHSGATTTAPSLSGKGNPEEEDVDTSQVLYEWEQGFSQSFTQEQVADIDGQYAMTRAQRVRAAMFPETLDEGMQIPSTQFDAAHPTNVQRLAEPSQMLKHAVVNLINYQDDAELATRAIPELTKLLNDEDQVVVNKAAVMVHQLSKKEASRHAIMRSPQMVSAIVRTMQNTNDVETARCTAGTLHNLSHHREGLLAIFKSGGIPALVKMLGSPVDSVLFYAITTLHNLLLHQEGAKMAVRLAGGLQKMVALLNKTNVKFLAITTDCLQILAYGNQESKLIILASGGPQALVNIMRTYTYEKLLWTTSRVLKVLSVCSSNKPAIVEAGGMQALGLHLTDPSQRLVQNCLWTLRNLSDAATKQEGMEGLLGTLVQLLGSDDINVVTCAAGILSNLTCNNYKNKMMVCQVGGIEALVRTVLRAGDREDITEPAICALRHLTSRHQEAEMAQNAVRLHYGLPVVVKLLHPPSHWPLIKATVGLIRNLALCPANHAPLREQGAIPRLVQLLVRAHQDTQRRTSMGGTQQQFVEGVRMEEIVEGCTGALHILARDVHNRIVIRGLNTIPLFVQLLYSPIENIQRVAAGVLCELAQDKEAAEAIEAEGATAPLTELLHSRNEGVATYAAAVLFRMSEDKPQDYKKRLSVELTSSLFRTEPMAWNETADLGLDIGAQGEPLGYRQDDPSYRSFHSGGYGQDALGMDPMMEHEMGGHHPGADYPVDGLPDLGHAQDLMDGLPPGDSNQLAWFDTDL

T3: B-cat-Halo (beta-catenin HaloTag NanoBRET construct expressed in HEK293 cells) (UniProt P35222 1-781, HaloTag labelled with HaloTag NanoBRET 618 Ligand)
T3 sequence (looked up): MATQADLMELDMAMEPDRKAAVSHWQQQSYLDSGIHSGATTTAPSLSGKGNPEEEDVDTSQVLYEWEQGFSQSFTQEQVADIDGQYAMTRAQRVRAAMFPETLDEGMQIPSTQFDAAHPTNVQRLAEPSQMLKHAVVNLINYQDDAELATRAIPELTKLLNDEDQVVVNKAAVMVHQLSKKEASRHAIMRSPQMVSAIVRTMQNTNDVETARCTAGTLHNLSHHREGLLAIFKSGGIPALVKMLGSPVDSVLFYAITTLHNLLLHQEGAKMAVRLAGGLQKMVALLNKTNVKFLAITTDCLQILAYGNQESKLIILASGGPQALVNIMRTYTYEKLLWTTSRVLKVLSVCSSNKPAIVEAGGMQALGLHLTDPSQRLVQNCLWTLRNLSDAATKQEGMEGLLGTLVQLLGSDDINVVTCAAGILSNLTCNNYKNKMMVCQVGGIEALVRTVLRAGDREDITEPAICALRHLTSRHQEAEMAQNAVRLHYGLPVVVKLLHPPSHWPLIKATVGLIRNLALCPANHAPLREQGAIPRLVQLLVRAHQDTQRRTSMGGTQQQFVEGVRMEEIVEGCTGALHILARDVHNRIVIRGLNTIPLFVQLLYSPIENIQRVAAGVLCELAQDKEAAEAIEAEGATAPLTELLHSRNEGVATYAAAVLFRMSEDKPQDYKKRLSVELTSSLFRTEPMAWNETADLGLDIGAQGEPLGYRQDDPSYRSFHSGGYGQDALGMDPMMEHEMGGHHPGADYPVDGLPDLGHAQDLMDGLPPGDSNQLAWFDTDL

T4: full-length beta-Catenin (Uniprot ID P35222) (Homo sapiens (Human), UniProt P35222 2-781)
T4 construct: also called bCat; B-Catenin
T4 sequence: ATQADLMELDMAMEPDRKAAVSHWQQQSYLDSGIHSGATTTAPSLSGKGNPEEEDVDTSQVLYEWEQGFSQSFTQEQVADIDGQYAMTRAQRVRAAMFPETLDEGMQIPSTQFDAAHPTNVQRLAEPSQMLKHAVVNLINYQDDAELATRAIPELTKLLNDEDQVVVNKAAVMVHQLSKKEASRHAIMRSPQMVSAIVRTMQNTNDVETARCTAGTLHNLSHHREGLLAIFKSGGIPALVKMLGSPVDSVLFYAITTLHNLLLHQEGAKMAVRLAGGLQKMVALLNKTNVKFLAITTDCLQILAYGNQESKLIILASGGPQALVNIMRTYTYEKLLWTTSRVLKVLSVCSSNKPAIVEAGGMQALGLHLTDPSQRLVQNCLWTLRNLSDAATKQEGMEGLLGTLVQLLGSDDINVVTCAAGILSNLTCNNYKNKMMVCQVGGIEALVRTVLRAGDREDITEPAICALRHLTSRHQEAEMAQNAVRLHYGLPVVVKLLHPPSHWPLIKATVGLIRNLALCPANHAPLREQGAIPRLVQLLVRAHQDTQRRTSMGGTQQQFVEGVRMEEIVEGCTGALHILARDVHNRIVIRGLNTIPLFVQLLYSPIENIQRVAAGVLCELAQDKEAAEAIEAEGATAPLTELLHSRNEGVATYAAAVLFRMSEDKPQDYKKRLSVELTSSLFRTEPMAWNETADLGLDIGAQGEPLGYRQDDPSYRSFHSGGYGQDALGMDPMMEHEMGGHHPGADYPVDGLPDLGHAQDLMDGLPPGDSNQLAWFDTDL


How the values were obtained:
[1] = target: T1, full-length beta-Catenin (Uniprot ID …); assay: AlphaScreen competition; peptide titrated against full-length beta-catenin + biotin-TCF4(10-53)
Summary of the method: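 Titrated peptide was preincubated 15 minutes at 20° C, then donor and acceptor beads were added for 60 minutes at 20° C protected from light. Reads were done in duplicate, and data were fitted to a 1:1 binding model with Hill slope; concentrations are final.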

[2] = target: T2, B-cat-Halo; assay: cell-based or functional assay
[3] = target: T1, full-length beta-Catenin (Uniprot ID …); assay: fluorescence polarization competition; peptide titrated against full-length beta-catenin + 5FAM-TCF4(10-53) probe
Protocol: (§1) The plate was incubated protected from light for 60 minutes at 20° C. prior to read. Reads were performed on a CLARIOstar plate reader (BMG Labtech) in duplicate, and data were fitted to a 1:1 binding model with hill slope using an in-house script. All provided concentrations are final concentrations.

[4] = target: T3, B-cat-Halo (beta-catenin HaloTag …); assay: cell-based or functional assay
[5] = target: T4, full-length beta-Catenin (Uniprot ID …); assay: fluorescence polarization competition; 10 nM full-length beta-catenin + 10 nM 5FAM-TCF4(10-53) probe, peptide titrated
Protocol: as §1

Row | Binder | EC50 [1] | NanoBRET % inh @ 10 uM [2] | EC50 [3] | NanoBRET % inh @ 10 uM [4] | EC50 [5]
1 | XDAXDDAAFVXFAQ (not fully specified; N-terminal Ac; C-terminal NH2; PL3 at 1, B5 at 4, S8 at 11 (stapled 1-4 and 4-11), Stapled peptide composition; Earlier-eluting isomer composition; also called Ac-PL3-Asp-Ala-B5-Asp-Asp-Ala-Ala-Phe-Val-S8-Phe-Ala-Gln-NH2) [I-357] | 10 µM | -5.3% | 5 µM | – | –
2 | Ac-[αAllylPro]DI[B5(23)]DEAAFQ[S8]F[Bta]Q-NH2 (staple 1-4, 4-11, Stapled (stitched) peptide) [I-407] | – | – | – | 55.1% | 0.03 µM
